According to patent US20140010757A1 (Stanford University, published 2014):
No end group written: not given here.

Tests used:
[1] = target: αvβ3 integrin on cells (U87MG glioblastoma cells; K562-αvβ3 cells) (UniProt P06756); assay: competing off binding of ^125I-echistatin (U87MG cells)
[2] = target: T1, α5β1 integrin (detergent-solubilized) (UniProt P08648 42-1049; P05556 21-798); assay: competition with ^125I-echistatin on plate-coated detergent-solubilized integrin
T1 construct: Coated on microtiter plates; also called integrin α5β1

[3] = target: T2, αvβ3 integrin on cells (U87MG glioblastoma cells; K562-αvβ3 cells) (UniProt P06756 31-1048; P05106 27-788); assay: competition with ^125I-echistatin on U87MG cells
T2 construct: whole, on cells; also called cell surface αvβ3 integrin

Question: How did the IC50 [1] turn out when WT (synthesized Agouti peptide) was run?
Answer: 1.4 µM

Question: Does QCESGPCCRNCKFLKEGTICKRARGDDMDDYCNGKTCDCPRNPHKGPAT (ligand, ends and bridges not checked; cysteine pairing not given here) [echistatin (unlabeled)] bind [2]?
Answer: binds

B1: ^64Cu-DOTA-7C AgRP engineered peptide (designed binder)
chain: GCVRLHESCLGQQVPCCDPAATCYCYGRGDNDLRCYCR
modifications: ends and bridges not checked; also: DOTA-64Cu label (site not given here)
notes: also called ^64Cu Labeled AgRP loop 4 RDG mutant (peptide 7C); labeled 7C
Question: Does B1 bind [3]?
Answer: binds
